B1: HDV Ribozyme (parent)
chain: GGCCGGCAUGGUCCCAGCCUCCUCGCUGGCGCCGGCUGGGCAACAUUCCGAGGGGACCGUCCCCUCGGUAAUGGCGAAUGGGACCCA

Variants of: B1
Test: self-cleavage, relative activity (ratio to wild type); higher = more cleavage; co-transcriptional

| Variant | self-cleavage |
| --- | --- |
| GGCCGGCAUGGUCCCAGCCUCCUCGCUGGCGCCUGCUGGGCAACACUCCGAGGGGACCGUCCCCUCGGUAAUGGCGAAUGGGACCCA [G34U U46C] | 0.161 |
| GGCCGGCAUGGUCCCAGCCUCCUCGCUGGCGCCUGCUGGGCAACAGUCCGAGGGGACCGUCCCCUCGGUAAUGGCGAAUGGGACCCA [G34U U46G] | 0.196 |
| GGCCGGCAUGGUCCCAGCCUCCUCGCUGGCGCCGACUGGACAACAUUCCGAGGGGACCGUCCCCUCGGUAAUGGCGAAUGGGACCCA [G35A G40A] | 0.346 |
| GGCCGGCAUGGUCCCAGCCUCCUCGCUGGCGCCGACUGGUCAACAUUCCGAGGGGACCGUCCCCUCGGUAAUGGCGAAUGGGACCCA [G35A G40U] | 0.42 |
| GGCCGGCAUGGUCCCAGCCUCCUCGCUGGCGCCGACUGGGCAACAUUCCGAGGGGACCGUCCCCUCGGUAAUGGCGGAUGGGACCCA [G35A A77G] | 0.277 |
| GGCCGGCAUGGUCCCAGCCUCCUCGCUGGCGCCGACUGGGAAACAUUCCGAGGGGACCGUCCCCUCGGUAAUGGCGAAUGGGACCCA [G35A C41A] | 0.562 |
| GGCCGGCAUGGUCCCAGCCUCCUCGCUGGCGCCGACUGGGCAACAUUCCGAGGGGACCGUCCCCUCGGUAAUGGCGAAUGGGACUCA [G35A C85U] | 0.541 |
| GGCCGGCAUGGUCCCAGCCUCCUCGCUGGCGCCGACUGGGCAACAUUCCGAGGGGACCGUCCCCUCGGUAAUGGCGAAUGGGACCUA [G35A C86U] | 0.712 |
| GGCCGGCAUGGUCCCAGCCUCCUCGCUGGCGCCGACUGGGCAACAUUCGGAGGGGACCGUCCCCUCGGUAAUGGCGAAUGGGACCCA [G35A C49G] | 0.425 |
| GGCCGGCAUGGUCCCAGCCUCCUCGCUGGCGCCUGCUGGGCAACAUUCCGAGGGGACCGUCCCCACGGUAAUGGCGAAUGGGACCCA [G34U U65A] | 0.0923 |
| GGCCGGCAUGGUCCCAGCCUCCUCGCUGGCGCCGACUGGGCAACAUUCCGAGGGGACCGUCCCCUCGGUAAUGGCGAAGGGGACCCA [G35A U79G] | 0.397 |
| GGCCGGCAUGGUCCCAGCCUCCUCGCUGGCGCCGCGUGGGCAACAUUCCGAGGGGACCGUCCCCUCGGUAAUGGCGAAUGGGACCCA [G35C C36G] | 0.0978 |
| GGCCGGCAUGGUCCCAGCCUCCUCGCUGGCGCCUGCUGGGCAACAUUCCGAGGGGACCGUCCCCUCGGUAAUGGCUAAUGGGACCCA [G34U G76U] | 0.132 |
| GGCCGGCAUGGUCCCAGCCUCCUCGCUGGCGCCGACUGGGCAACAUUCCUAGGGGACCGUCCCCUCGGUAAUGGCGAAUGGGACCCA [G35A G50U] | 0.629 |
| GGCCGGCAUGGUCCCAGCCUCCUCGCUGGCGCCGCCUGGGCAACAUUCCGAGGGGACCGUUCCCUCGGUAAUGGCGAAUGGGACCCA [G35C C61U] | 0.188 |
| GGCCGGCAUGGUCCCAGCCUCCUCGCUGGCGCCGCCUGGGCAACAUUCCGAGGGGACCGUACCCUCGGUAAUGGCGAAUGGGACCCA [G35C C61A] | 0.283 |

| Variant | self-cleavage |
| --- | --- |
| GGCCGGCAUGGUCCCAGCCUCCUCGCUGGCGCCGACUGGGCAACAUUCCGAGGGGACCGUCCCCUCGGUAAUGGCGAAUCGGACCCA [G35A G80C] | 0.162 |
| GGCCGGCAUGGUCCCAGCCUCCUCGCUGGCGCCGACUGGGCAACAUUCCGAGGGGACCGUCCCCUCGGUAAUGGCGAAUAGGACCCA [G35A G80A] | 0.196 |
| GGCCGGCAUGGUCCCAGCCUCCUCGCUGGCGCCGACUGGGCAACAUUCCGAGGGGACCGUCCCCUCGGUAAUGGCGAAUUGGACCCA [G35A G80U] | 0.151 |
| GGCCGGCAUGGUCCCAGCCUCCUCGCUGGCGCCGCCUGGGCAACAUUCAGAGGGGACCGUCCCCUCGGUAAUGGCGAAUGGGACCCA [G35C C49A] | 0.119 |
| GGCCGGCAUGGUCCCAGCCUCCUCGCUGGCGCCUGCUGGGCAACAUCCCGAGGGGACCGUCCCCUCGGUAAUGGCGAAUGGGACCCA [G34U U47C] | 0.234 |
| GGCCGGCAUGGUCCCAGCCUCCUCGCUGGCGCCUGCUGGGCAACAUUCCGAGGGGACCGUCCCCUCGGUAAUUGCGAAUGGGACCCA [G34U G73U] | 0.0455 |
| GGCCGGCAUGGUCCCAGCCUCCUCGCUGGCGCCUGCUGGGCAACAUUCCGAGGGGACCGUCCCCUCGGUAAUAGCGAAUGGGACCCA [G34U G73A] | 0.109 |
| GGCCGGCAUGGUCCCAGCCUCCUCGCUGGCGCCGACUGGGCAACAUUCCGAGGGGACCGUCCCCUCGGUAAUGGCGACUGGGACCCA [G35A A78C] | 0.0528 |
| GGCCGGCAUGGUCCCAGCCUCCUCGCUGGCGCCUGCUGGGCAACAUUCCGAGGGGACCCUCCCCUCGGUAAUGGCGAAUGGGACCCA [G34U G59C] | 0.142 |
| GGCCGGCAUGGUCCCAGCCUCCUCGCUGGCGCCUGCUGGGCAACAUUCCGAGGGGACCAUCCCCUCGGUAAUGGCGAAUGGGACCCA [G34U G59A] | 0.203 |
| GGCCGGCAUGGUCCCAGCCUCCUCGCUGGCGCCUGCGGGGCAACAUUCCGAGGGGACCGUCCCCUCGGUAAUGGCGAAUGGGACCCA [G34U U37G] | 0.0519 |
| GGCCGGCAUGGUCCCAGCCUCCUCGCUGGCGCCUGCUGGGCAACAUUCCGAGGGGACCGUCCCCUCGGUAAUGGCGAAUCGGACCCA [G34U G80C] | 0.143 |
| GGCCGGCAUGGUCCCAGCCUCCUCGCUGGCGCCUGCUGGGCAACAUUCCGAGGGGACCGUCCCCUCGGUAAUGGCGAAUAGGACCCA [G34U G80A] | 0.113 |
| GGCCGGCAUGGUCCCAGCCUCCUCGCUGGCGCCGACUGGGCAACAUUCCGAGGGGAACGUCCCCUCGGUAAUGGCGAAUGGGACCCA [G35A C57A] | 0.545 |
| GGCCGGCAUGGUCCCAGCCUCCUCGCUGGCGCCGCCUGGGCAACAUUCCGAGGGGACCGUCUCCUCGGUAAUGGCGAAUGGGACCCA [G35C C62U] | 0.0665 |
| GGCCGGCAUGGUCCCAGCCUCCUCGCUGGCGCCGCCUGGGCAACAUUCCGAGGGGACCGUCGCCUCGGUAAUGGCGAAUGGGACCCA [G35C C62G] | 0.0594 |
